Results published in patent US20170129957A1 (BERGENBIO ASA, published 2017).

Columns and labels:
[1] = target: T1, recombinant human Mer-Fc chimera (R&D Systems, Cat. no. 891-MR) (human, UniProt Q12866 21-499, limits assumed); assay: SPR (Biacore 3000), rhMer-Fc immobilised on CM5 at 303.6 RU, MAb 1H12 injected
T1 construct: Bought soluble Fc chimera; also called rhMer-Fc; rhMer; Fc part of the bought chimera not given
T1 sequence (looked up): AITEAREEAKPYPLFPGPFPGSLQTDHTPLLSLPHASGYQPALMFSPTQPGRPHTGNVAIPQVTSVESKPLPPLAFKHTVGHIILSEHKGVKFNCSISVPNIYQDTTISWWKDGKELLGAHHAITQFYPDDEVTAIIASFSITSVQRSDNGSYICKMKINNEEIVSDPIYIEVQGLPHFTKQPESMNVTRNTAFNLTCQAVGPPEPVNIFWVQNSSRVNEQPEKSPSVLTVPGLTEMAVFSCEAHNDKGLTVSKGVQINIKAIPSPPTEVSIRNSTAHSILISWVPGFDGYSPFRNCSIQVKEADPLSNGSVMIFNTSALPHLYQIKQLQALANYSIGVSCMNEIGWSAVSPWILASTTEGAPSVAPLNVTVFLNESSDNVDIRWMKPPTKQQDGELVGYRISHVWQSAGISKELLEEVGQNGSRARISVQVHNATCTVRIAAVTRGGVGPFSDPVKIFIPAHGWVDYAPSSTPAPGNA

[2] = target: T2, recombinant human Axl-Fc chimera (R&D Systems, Cat. no. 154-AL) (human, UniProt P30530 26-451); assay: SPR (Biacore 3000, 25 °C), rhAxl-Fc immobilised at 190 RU, 1H12 1.3-666.7 nM
T2 construct: Bought reagent; also called rhAxl-Fc; rhAxl; not shown: human IgG1 Fc domain
T2 sequence: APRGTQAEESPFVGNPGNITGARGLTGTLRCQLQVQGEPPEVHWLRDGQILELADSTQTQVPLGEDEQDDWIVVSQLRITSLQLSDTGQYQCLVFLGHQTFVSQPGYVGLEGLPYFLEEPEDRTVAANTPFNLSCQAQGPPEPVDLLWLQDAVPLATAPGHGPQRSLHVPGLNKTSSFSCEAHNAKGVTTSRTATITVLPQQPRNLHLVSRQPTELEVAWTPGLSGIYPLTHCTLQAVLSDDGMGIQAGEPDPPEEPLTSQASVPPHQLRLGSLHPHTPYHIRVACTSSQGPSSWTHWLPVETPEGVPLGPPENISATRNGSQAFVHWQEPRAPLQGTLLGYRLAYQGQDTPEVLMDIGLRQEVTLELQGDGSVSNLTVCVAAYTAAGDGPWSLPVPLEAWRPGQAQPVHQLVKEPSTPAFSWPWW

[3] = target: T2, recombinant human Axl-Fc chimera (R&D …); assay: SPR (Biacore 3000), rhAxl-Fc immobilised on CM5 at 190 RU, MAb 1H12 at 1.3-666.7 nM, 25 °C, BIAevaluation fit [table under the sensorgrams]
[4] = target: T3, human Axl receptor of Axl+ human cell lines (MDA-MB-231, NCI-H1299, HeLa) (human, UniProt P30530 26-894); assay: flow cytometry on MDA-MB-231 cells, detection with APC-conjugated donkey anti-mouse IgG (H+L) F(ab')2
T3 construct: also called Axl+ cells; Axl-positive cells
T3 sequence: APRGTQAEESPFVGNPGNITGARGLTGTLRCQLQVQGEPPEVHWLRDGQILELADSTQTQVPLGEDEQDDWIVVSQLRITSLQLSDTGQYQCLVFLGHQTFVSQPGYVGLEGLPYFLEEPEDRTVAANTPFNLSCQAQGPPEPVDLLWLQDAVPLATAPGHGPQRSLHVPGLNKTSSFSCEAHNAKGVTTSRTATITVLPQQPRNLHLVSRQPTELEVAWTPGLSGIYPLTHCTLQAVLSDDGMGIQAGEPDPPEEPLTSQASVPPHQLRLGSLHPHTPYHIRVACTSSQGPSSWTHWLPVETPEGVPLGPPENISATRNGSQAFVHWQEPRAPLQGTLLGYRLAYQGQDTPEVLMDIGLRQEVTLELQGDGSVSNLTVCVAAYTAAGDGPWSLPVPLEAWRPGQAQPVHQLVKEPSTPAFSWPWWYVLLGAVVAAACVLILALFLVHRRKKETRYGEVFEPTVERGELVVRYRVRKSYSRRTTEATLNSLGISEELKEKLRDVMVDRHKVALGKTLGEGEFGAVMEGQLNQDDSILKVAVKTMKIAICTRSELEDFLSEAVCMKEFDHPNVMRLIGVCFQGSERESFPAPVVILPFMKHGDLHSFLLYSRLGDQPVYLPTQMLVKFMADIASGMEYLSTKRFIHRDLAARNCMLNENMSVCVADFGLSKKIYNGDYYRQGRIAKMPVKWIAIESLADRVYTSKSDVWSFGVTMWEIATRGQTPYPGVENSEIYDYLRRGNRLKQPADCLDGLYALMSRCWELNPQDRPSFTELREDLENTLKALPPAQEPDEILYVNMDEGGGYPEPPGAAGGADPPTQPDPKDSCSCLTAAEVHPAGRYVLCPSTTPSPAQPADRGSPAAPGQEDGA

[5] = target: T2, recombinant human Axl-Fc chimera (R&D …); assay: SPR (Biacore 3000, 25 °C), rhAxl-Fc immobilised at 190 RU, 1H12 1.3-666.7 nM, KD as koff/kon
[6] = target: T4, recombinant human Tyro3/Dtk-Fc chimera (R&D Systems, Cat. no. 859-DK) (human, UniProt Q06418 41-428); assay: SPR (Biacore 3000), rhTyro3/Dtk-Fc immobilised on CM5 at 364.0 RU, MAb 1H12 injected
T4 construct: Bought soluble Fc chimera; also called rhTyro3-Fc; rhTyro3; Fc part of the bought chimera not given
T4 sequence: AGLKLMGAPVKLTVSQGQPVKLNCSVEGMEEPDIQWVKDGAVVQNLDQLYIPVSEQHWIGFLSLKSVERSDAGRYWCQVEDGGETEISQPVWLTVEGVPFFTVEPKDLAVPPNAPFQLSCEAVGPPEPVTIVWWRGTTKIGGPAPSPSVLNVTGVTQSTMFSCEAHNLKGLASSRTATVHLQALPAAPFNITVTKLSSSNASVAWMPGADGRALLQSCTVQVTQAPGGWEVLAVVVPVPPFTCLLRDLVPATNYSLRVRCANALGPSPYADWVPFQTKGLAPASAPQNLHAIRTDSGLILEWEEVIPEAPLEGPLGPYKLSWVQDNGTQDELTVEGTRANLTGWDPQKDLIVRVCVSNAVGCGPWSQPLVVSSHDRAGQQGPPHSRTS

[7] = target: T2, recombinant human Axl-Fc chimera (R&D …); assay: SPR (Biacore 3000, 25 °C), calculated as ln2/koff
[8] = target: T5, recombinant mouse Axl-Fc chimera (R&D Systems, Cat. no. 854-AX) (mouse, UniProt Q00993 19-443); assay: SPR (Biacore 3000), rmAxl-Fc immobilised on CM5 at 2,115.9 RU, MAb 1H12 injected [upper panel 1H12]
T5 construct: Bought soluble Fc chimera; also called rmAxl-Fc; rmAxl; Fc part of the bought chimera not given
T5 sequence: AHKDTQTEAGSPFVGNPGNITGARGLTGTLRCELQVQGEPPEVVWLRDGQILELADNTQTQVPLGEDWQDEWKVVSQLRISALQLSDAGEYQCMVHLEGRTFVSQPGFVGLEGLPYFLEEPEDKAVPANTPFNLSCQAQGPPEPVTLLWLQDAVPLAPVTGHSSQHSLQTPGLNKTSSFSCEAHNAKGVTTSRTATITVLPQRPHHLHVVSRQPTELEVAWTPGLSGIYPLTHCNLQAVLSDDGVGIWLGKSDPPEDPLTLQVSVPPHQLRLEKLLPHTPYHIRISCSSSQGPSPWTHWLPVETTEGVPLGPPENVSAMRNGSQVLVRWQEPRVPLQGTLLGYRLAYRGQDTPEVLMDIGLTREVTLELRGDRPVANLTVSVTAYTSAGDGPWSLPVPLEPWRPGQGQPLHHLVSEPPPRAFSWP

[9] = target: T3, human Axl receptor of Axl+ human cell …; assay: flow cytometry on MDA-MB-231 cells, detection with APC-conjugated donkey anti-human IgG (H+L) F(ab')2
[10] = target: T2, recombinant human Axl-Fc chimera (R&D …); assay: SPR (Biacore 3000), rhAxl-Fc immobilised on CM5 at 190 RU, ch1H12 at 1.3-666.7 nM, 25 °C, 1:1 Langmuir fit [table under the sensorgrams]
[11] = target: T2, recombinant human Axl-Fc chimera (R&D …); assay: SPR (Biacore 3000, 25 °C), rhAxl-Fc immobilised at 190 RU, ch1H12 1.3-666.7 nM, 1:1 Langmuir model
[12] = target: T2, recombinant human Axl-Fc chimera (R&D …); assay: SPR (Biacore 3000, 25 °C), rhAxl-Fc immobilised at 190 RU, ch1H12 1.3-666.7 nM, 1:1 Langmuir model, KD as koff/kon
[13] = target: T2, recombinant human Axl-Fc chimera (R&D …); assay: SPR (Biacore 3000, 25 °C), comparison of KD with parental murine 1H12

B1: mouse anti-Axl monoclonal antibody 1H12 (antibody, V domains shown)
VH: EVKLVESGGDLVKPGGSLKLSCAASGFTFSSYGMSWVRQTPDKRLEWVATISSGGSYTYYPDSVKGRFTISRDNAKNTLYLQMSSLKSEDTAMYYCARHPIYYTYDDTMDYWGQGTSVTVSS
VL: DIVLTQSPAIMAASPGEKVTMTCSASSSVSSGNFHWYQQKPGTSPKLWIYRTSNLASGVPARFSGSGSGTSYSLTISSMEAEDAATYYCQQWSGYPWTFGGGTKLEIK
notes: also called MAb 1H12; m 1H12
binding result [1]: no binding (tested: 10 µg/mL) | koff [2]: 1.07e-05 s⁻¹ | kon [3]: 214000 M⁻¹ s⁻¹ | EC50 (read off the curve) [4]: ~0.9 nM | Kd [5]: 0.0498 nM | binding result [6]: no binding (tested: 10 µg/mL) | half-life of the 1H12/Axl complex [7]: 18 h | binding result [8]: no binding (tested: 10 µg/mL)

B2: chimeric (mouse variable/human constant IgG1) monoclonal antibody ch1H12 (antibody, V domains shown)
VH: EVKLVESGGDLVKPGGSLKLSCAASGFTFSSYGMSWVRQTPDKRLEWVATISSGGSYTYYPDSVKGRFTISRDNAKNTLYLQMSSLKSEDTAMYYCARHPIYYTYDDTMDYWGQGTSVTVSS
VL: DIVLTQSPAIMAASPGEKVTMTCSASSSVSSGNFHWYQQKPGTSPKLWIYRTSNLASGVPARFSGSGSGTSYSLTISSMEAEDAATYYCQQWSGYPWTFGGGTKLEIK
notes: also called chimeric MAb ch1H12; chimeric monoclonal antibody 1H12; not shown: constant domains of the human IgG1 heavy chain; human light chain constant domain (C-kappa)
EC50 (read off the curve) [9]: ~0.6 nM | kon [10]: 271000 M⁻¹ s⁻¹ | koff [11]: 2.99e-06 s⁻¹ | half-life of the ch1H12/Axl complex [7]: 64.4 h | Kd [12]: 0.011 nM | fold lower KD than the parental murine antibody 1H12 [13]: 4.5 fold
